Assay results from PMC2988979 (Nature structural & molecular biology, 2010).

Target: recombinant HAT1 holoenzyme (HAT1 and RbAp46) (UniProt O14929;Q16576)
Assay: pull-down

Sequence of recombinant HAT1 holoenzyme (HAT1 and RbAp46) (O14929 whole entry, chain 1 of 2): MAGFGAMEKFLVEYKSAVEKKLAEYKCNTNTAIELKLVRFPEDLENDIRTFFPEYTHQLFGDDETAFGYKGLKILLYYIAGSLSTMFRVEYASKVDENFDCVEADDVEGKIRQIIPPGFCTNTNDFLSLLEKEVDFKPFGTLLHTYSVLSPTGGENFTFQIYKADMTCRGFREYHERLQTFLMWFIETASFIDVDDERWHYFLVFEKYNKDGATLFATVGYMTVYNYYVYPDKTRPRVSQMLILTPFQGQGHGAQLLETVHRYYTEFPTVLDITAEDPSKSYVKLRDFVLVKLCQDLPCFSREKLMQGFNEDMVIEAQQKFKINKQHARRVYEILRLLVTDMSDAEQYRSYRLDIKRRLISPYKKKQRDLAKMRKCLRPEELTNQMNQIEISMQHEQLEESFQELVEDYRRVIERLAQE
Sequence of recombinant HAT1 holoenzyme (HAT1 and RbAp46) (Q16576 whole entry, chain 2 of 2): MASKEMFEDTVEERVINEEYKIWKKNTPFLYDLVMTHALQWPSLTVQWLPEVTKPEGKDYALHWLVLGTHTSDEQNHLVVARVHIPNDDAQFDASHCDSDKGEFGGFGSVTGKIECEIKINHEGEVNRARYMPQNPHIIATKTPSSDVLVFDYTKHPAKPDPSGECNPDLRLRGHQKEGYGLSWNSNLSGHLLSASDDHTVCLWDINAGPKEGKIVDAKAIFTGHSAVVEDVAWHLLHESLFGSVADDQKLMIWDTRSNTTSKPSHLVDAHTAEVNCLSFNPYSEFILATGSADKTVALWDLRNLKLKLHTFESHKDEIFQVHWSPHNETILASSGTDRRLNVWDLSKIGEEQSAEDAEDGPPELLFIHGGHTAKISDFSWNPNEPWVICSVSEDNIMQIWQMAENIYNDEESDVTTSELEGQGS

- binding result: binds
B1: GST-tagged ASF1B (natural protein)
chain: MAKVSVLNVAVLENPSPFHSPFRFEISFECSEALADDLEWKIIYVGSAESEEFDQILDSVLVGPVPAGRHMFVFQADAPNPSLIPETDAVGVTVVLITCTYHGQEFIRVGYYVNNEYLNPELRENPPMKPDFSQLQRNILASNPRVTRFHINWDNNMDRLEAIETQDPSLGCGLPLNCTPIKGLGLPGCIPGLLPENSMDCI
